Measured values taken from publication doi:10.1101/492876.

How the values were obtained:
[1] = molecular target: elongation factor thermo-unstable (EF-Tu), hexahistidine-tagged (E. coli) (UniProt P0CE47); assay: SEC
[2] = molecular target: preformed oligomeric EF-Tu (^OligoEF-Tu) (E. coli) (UniProt P0CE47); assay: ITC

stoichiometry N [1]	Kd [2] [nM]	dH [2] [kcal/mol]	stoichiometry N [2]	Substance
2				elongation factor thermo-unstable (EF-Tu), hexahistidine-tagged (from UniProt P0CE47 1-394) (natural protein)
1	580	-18.8	2.37	reduced form of Hsp33 (^RHsp33) (from UniProt P0A6Y5 1-292) (natural protein)
